Assays:
Format in all cases: in vivo, human
[1] = test system: women with LIV-1-positive, unresectable, locally advanced or metastatic breast cancer (LA/MBC); assay: Phase 1 study of SGN-LIV1A: safety and tolerability
Protocol: (§1) This ongoing, phase 1 study evaluated safety, tolerability, pharmacokinetics, and anti-tumor activity of SGN-LIV1A (q3wks IV) in women with LIV-1-positive, unresectable, locally advanced or metastatic breast cancer (LA/MBC) (NCT01969643). Patients with measurable disease and >2 prior cytotoxic regimens for LA/MBC were eligible. Patients with ≥Grade 2 neuropathy were excluded. Response was assessed per RECIST v1.1; pts with stable disease (SD) or better could continue treatment until disease progression or intolerable toxicity. At completion of dose escalation in hormone receptor-positive/HER2-negative (HR+/HER2−) and triple-negative (TN) patients, expansion cohorts were opened to further evaluate safety and antitumor activity of monotherapy in TN patients. Tumor biopsies were evaluated for LIV1 expression.
At the completion of dose escalation, multiple expansion cohorts for SGN-LIV1A monotherapy (Part A) treatment were opened to enroll up to 15 patients each with specific breast cancer subtypes at a recommended dose level to further define the safety and antitumor activity. Following an analysis of safety and activity in the 2.0 mg/kg versus 2.5 mg/kg dose cohorts, the recommended phase 2 dose was determined to be 2.5 mg/kg (maximum dose of 200 mg per cycle)

[2] = test system: hormone receptor-positive/HER2-negative (HR+/HER2-) LIV-1-positive LA/MBC; assay: Phase 1 study of SGN-LIV1A: anti-tumor activity per RECIST v1.1, HR+/HER2- patients; conditions: 17 efficacy evaluable HR+/HER2- patients, dose escalation
Protocol: as §1

[3] = test system: patients with LIV-1-positive LA/MBC, weight greater than or equal to 80 kg; assay: Phase 1 dose expansion continuation: safety of a total maximum dose of 250 mg per cycle, with or without GCSF; conditions: 2.5 mg/kg, >=200 mg up to 250 mg per cycle
Protocol: This study is a continuation of the dose expansion cohort study for SGN-LIV1A monotherapy (Part A) of the phase 1 study described in Example 1, which includes data from 22 additional administrations of SGN-LIV1A (q3wks IV). Patients were as described in Example 1. These additional administrations were conducted to assess the safety of a total maximum dose of 250 mg per cycle. Patients were dosed at 2.5 mg/kg and each of these 22 additional administrations were greater than or equal to 200 mg per cycle due to the patients having a weight greater than or equal to 80 kg.

[4] = test system: triple-negative (TN) LIV-1-positive LA/MBC; assay: Phase 1 study of SGN-LIV1A: anti-tumor activity per RECIST v1.1, triple-negative patients
Protocol: as §1

[5] = % of 69 patients, 0.5 to 2.8 mg/kg q3wks IV

## SGN-LIV1A: anti-LIV-1 humanized antibody (hLIV22) conjugated to monomethyl auristatin E (MMAE) via a protease-cleavable valine-citrulline linker
[1]; 2.0 mg/kg (N=26)
  febrile neutropenic events or neutropenia-associated SAEs: no febrile neutropenic events or neutropenia-associated SAEs
[1]; 2.5 mg/kg dose level of Part A (monotherapy)
  incidence of Grade 3 or higher neutropenia AEs: 57%
[1]; 2.5 mg/kg, doses <=200 mg (N=18)
  febrile neutropenic events or neutropenia-associated SAEs: no febrile neutropenic events or neutropenia-associated SAEs
[1]; 2.5 mg/kg, doses >200 mg (N=11)
  patients experiencing SAEs associated with neutropenia: 5 of 11
[1]; 2.5 mg/kg, doses >200 mg (N=11), includes the one treatment related death due to sepsis
  febrile neutropenia: 2 of 11
[1]; 19 DLT-evaluable patients, doses of 0.5 to 2.8 mg/kg q3wks IV
  dose-limiting toxicities (DLTs): No dose-limiting toxicities (DLTs) occurred
[1]; 69 patients, total dose exceeded 200 mg per cycle, no other treatment-related deaths on-study
  treatment-related deaths: one treatment-related death due to sepsis
[1]; [5]
  AEs >=Grade 3: anemia: 15%
  AEs >=Grade 3: neutropenia: 25%
  treatment-emergent AE: abdominal pain: 25%
  treatment-emergent AE: alopecia: 36%
  treatment-emergent AE: constipation: 30%
  treatment-emergent AE: decreased appetite: 33%
  treatment-emergent AE: diarrhea: 25%
  treatment-emergent AE: fatigue: 59%
  treatment-emergent AE: nausea: 51%
  treatment-emergent AE: peripheral neuropathy: 44%
[1]; all grades, % of 69 patients, 0.5 to 2.8 mg/kg q3wks IV
  treatment-emergent AE: neutropenia: 25%
[1]; of 69 patients
  patients who discontinued treatment due to AEs: Seven
[1]; of 69 patients, both had a total dose exceeding 200 mg per cycle
  febrile neutropenia: 2 patients
[1]; overall monotherapy study population
  incidence of Grade 3 or higher neutropenia AEs: 39%
[1]; q3wks IV, not exceeded at the highest dose
  maximum tolerated dose: ≥ 2.8 mg/kg
[2]
  patients with SD>=24 wks: one
[2]; 10 SD
  disease control rate (DCR=CR+PR+SD): 59%
[3]; co-administered with GCSF, 7 administrations
  administrations resulting in development of neutropenia: none
[3]; not co-administered with GCSF, 5 of 15 administrations
  administrations resulting in development of neutropenia: 33.3%
[4]; 44 efficacy evaluable TN patients
  confirmed PR rate: 21%
[4]; 44 efficacy evaluable TN patients (dose escalation plus expansion cohorts), 14 PR
  objective response rate (ORR): 32%
[4]; 44 efficacy evaluable TN patients, 14 PR, 14 SD
  DCR: 64%
[4]; 44 efficacy evaluable TN patients, 16 patients
  clinical benefit rate (CBR=CR+PR+SD>=24 weeks): 36%
[4]; TN patients, 95% CI: 6.1, 17.1
  median PFS: 11.3 weeks
